Tests used:
HA-p73α = target: T1, HA-p73α (Homo sapiens, UniProt O15350); assay: Ubiquitination assay in COS7 cells; type: cell-based; details: COS7, HA-p73α and HA-ubiquitin, MG-132 (FIG. 18, 19)
T1 construct: expressed in transfected cells; host or cells: COS7
T1 sequence (O15350 1-636): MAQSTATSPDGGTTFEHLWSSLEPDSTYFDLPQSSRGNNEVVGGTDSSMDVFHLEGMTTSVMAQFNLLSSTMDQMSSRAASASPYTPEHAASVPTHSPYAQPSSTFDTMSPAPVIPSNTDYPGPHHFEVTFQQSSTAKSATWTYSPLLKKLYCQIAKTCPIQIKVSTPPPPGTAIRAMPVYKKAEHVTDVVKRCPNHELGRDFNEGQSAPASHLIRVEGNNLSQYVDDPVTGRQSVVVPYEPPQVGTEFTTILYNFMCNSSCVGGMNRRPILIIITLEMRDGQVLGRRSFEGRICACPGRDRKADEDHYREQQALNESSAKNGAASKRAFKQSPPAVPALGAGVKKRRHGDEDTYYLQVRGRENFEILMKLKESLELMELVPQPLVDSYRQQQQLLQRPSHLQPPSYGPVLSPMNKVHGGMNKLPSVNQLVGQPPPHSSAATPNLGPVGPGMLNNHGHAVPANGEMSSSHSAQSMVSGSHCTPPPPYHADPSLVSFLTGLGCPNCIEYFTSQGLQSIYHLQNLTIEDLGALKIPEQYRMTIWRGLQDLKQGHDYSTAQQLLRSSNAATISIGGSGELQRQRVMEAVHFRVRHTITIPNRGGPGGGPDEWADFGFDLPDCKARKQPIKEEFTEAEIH
Description: COS7 cells were transiently transfected with a constant amount of expression plasmids encoding HA-p73α and HA-Ub in the presence or absence of varying amounts of IKK-α expression plasmids. After […] from the transfection, the cells were exposed for 6 hours to a proteasome inhibitor MG-132 (final concentration: 20 μM), and lysates from the whole cells were first subjected to immunoprecipitation with an anti-p73 monoclonal antibody and then to immunoblot using an anti-HA monoclonal antibody (12CA5; Roche Molecular Biochemicals) to analyze ubiquitination levels.
As described by Lee, C.-W. et al., Oncogene 18: 4171-4181 (1999), the steady-state level of p73 was regulated at least partially by the proteolytic process through the ubiquitin-proteasome pathway. Whether IKK-α inhibited the ubiquitination of p73 was investigated. COS7 cells were transfected with expression plasmids for HA-p73α and HA-ubiquitin together with or without varying amounts of IKK-α or FLAG-IKK-β expression plasmids. After 48 hours of the transfection, lysates from the whole cells were analyzed by immunoprecipitation and immunoblot and examined for the presence of p73α containing HA-ubiquitin.

p53 = assay: Luciferase reporter assay, p53-dependent transcriptional activation in H1299 cells; type: cell-based, human; details: H1299, coexpression with p53 (FIG. 22)
Description: (§1) H1299 cells deficient in p53 were seeded at a density of 5×10^4 cells/well onto a 12-well tissue culture dish and transiently transfected with 100 ng of luciferase reporter construct (which carried a p53/p73-responsive element derived from a p21^WAF1, Bax, or MDM2 promoter), 10 ng of pRL-TK Renilla luciferase cDNA, and 25 ng of given expression plasmid (p53, HA-p73α, or HA-p73β) together with or without varying amounts of IKK-α or FLAG-IKK-β expression plasmids. The total amount of DNA per transfection was kept constant (510 ng) with a pcDNA3 empty plasmid. After 48 hours from the transfection, the cells were washed twice with ice-cold PBS and suspended in passive lysis buffer (Promega). Both firefly and Renilla luciferase activities were assayed by use of dual-luciferase reporter assay system (Promega) according to the instruction. […] intensity was measured with TD-20 luminometer (Turner Design). The firefly luciferase signal was normalized based on the Renilla luciferase signal. Results obtained from at least 3 transfections were indicated by mean value±standard deviation.
To explore the functional implication of interaction between IKK-α and p73, the effect of IKK-α on p73-mediated transcriptional activation was first examined. […]

p73 = assay: Luciferase reporter assay, p73-dependent transcriptional activation in H1299 cells; type: cell-based, human
Description: as §1
To explore the functional implication of interaction between IKK-α and p73, the effect of IKK-α on p73-mediated transcriptional activation was first examined. H1299 cells deficient in p53 were transfected with a HA-p73α or HA-p73β expression plasmid and a luciferase reporter construct under the control of a p21^WAF1, Bax, or MDM2 promoter together with or without varying amounts of IKK-α expression plasmids. […] By contrast, increase in p53-responsive reporter gene activity was not induced by IKK-α (FIG. 22). To examine the specificity of p73-dependent transcriptional activation mediated by IKK-α, whether IKK-β enhanced p73 transcriptional activity to p53/p73-responsive promoters was confirmed.

B1: IKK-α: IKK-α protein, amino acid sequence SEQ ID NO: 24, expressed from plasmid; apoptosis enhancer (protein, listed as Homo sapiens)
chain: MERPPGLRPGAGGPWEMRERLGTGGFGNVCLYQHRELDLKIAIKSCRLELSTKNRERWCHEIQIMKKLNHANVVKACDVPEELNILIHDVPLLAMEYCSGGDLRKLLNKPENCCGLKESQILSLLSDIGSGIRYLHENKIIHRDLKPENIVLQDVGGKIIHKIIDLGYAKDVDQGSLCTSFVGTLQYLAPELFENKPYTATVDYWSFGTMVFECIAGYRPFLHHLQPFTWHEKIKKKDPKCIFACEEMSGEVRFSSHLPQPNSLCSLIVEPMENWLQLMLNWDPQQRGGPVDLTLKQPRCFVLMDHILNLKIVHILNMTSAKIISFLLPPDESLHSLQSRIERETGINTGSQELLSETGISLDPRKPASQCVLDGVRGCDSYMVYLFDKSKTVYEGPFASRSLSDCVNYIVQDSKIQLPIIQLRKVWAEAVHYVSGLKEDYSRLFQGQRAAMLSLLRYNANLTKMKNTLISASQQLKAKLEFFHKSIQLDLERYSEQMTYGISSEKMLKAWKEMEEKAIHYAEVGVIGYLEDQIMSLHAEIMELQKSPYGRRQGDLMESLEQRAIDLYKQLKHRPSDHSYSDSTEMVKIIVHTVQSQDRVLKELFGHLSKLLGCKQKIIDLLPKVEVALSNIKEADNTVMFMQGKRQKEIWHLLKIACTQSSARSLVGSSLEGAVTPQTSAWLPPTSAEHDHSLSCVVTPQDGETSAQMIEENLNCLGHLSTIIHEANEEQGNSMMNLDWSWLTE
- amount of ubiquitinated p73α (HA-p73α): decreased
- p53-responsive reporter gene activity (p53): not induced
- luciferase activity without p73 (p73; H1299, IKK-α alone): almost no effect on luciferase activity
- p73-dependent transcriptional activation of p21WAF1, Bax, MDM2 promoter reporters (p73; H1299, coexpression with HA-p73α or HA-p73β (FIG. 20, 21, 23)): Remarkable increase in p73-dependent transcriptional activation was dose-dependently observed
- induction of endogenous p21WAF1 mediated by p73α (p73; H1299, immunoblot (FIG. 24)): remarkably up-regulated
